Test results as given in the supplement of paper PMC10126150.
± gives the standard deviation of the averaged measurements.

test system: ATP; experiment: switch fluorescence ratio, 500 uM ATP over buffer (Cy3 cluster intensity, sum of 5 cycles each) (fold (ratio)); higher = stronger signal-on switching upon ATP binding; sequences stand for … in TCGTCGGCAGCGTCAGATGTGTATAAGAGACAGTTTTTTTTTTTTTTTTTTTTTTTTT…TC; details: aptamer strand: ATP DNA aptamer (quencher-CACCTGGGGGAGTATTGCGGAGGAAGG + anchor), 100 nM annealed; ATP concentration: 500 uM
Outline: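 Switching-strand clusters labelled with Cy3 on a modified Illumina MiSeq flow-cell were annealed to 100 nM quencher-labelled ATP aptamer, imaged in selection buffer, and re-imaged after 15 min with 500 uM ATP at 22 °C. This was done over five cycles with NaOH stripping and re-annealing in between. The fluorescence ratio is summed target-cycle over summed buffer-cycle Cy3 intensity per cluster, averaged per switch-domain sequence, excluding clusters outside 100-1000 RFU.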
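Note: ATP exposure 15 min at 22 °C before imaging.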

For TGCTTTTACG, which switch fluorescence ratio is on record?
The switch fluorescence ratio was 1.04 ± 0.064.

TGGAAAACCG was tested. Which switch fluorescence ratio did it give?
Its switch fluorescence ratio is 1.08 ± 0.022.

With TGGAAAAGGA as the sequence, how does the switch fluorescence ratio read?
Its switch fluorescence ratio is 0.9626 ± 0.0095.

With TGGAAAATTT as the sequence, how does the switch fluorescence ratio read?
The switch fluorescence ratio was 1.01 ± 0.0059.

Which switch fluorescence ratio does the source give for TGGAAAGGGA here?
The switch fluorescence ratio was 1.01 ± 0.044.

For TGGAAATAGG, which switch fluorescence ratio is on record?
The switch fluorescence ratio was 0.981 ± 0.039.

How did the switch fluorescence ratio turn out when TGGAAATCGC was run?
The switch fluorescence ratio was 1 ± 0.04.

With TGGAAATCGT as the sequence, how does the switch fluorescence ratio read?
The switch fluorescence ratio was 1.07 ± 0.083.

Which switch fluorescence ratio does the source give for TGGAACACCT here?
Its switch fluorescence ratio is 1.13 ± 0.041.

How did the switch fluorescence ratio turn out when TGGAACTATA was run?
The switch fluorescence ratio was 1.02 ± 0.018.

How did the switch fluorescence ratio turn out when TGGAAGGAGC was run?
Its switch fluorescence ratio is 1.07 ± 0.049.

TGGAAGGATT was tested. Which switch fluorescence ratio did it give?
Its switch fluorescence ratio is 1.01 ± 0.015.

Which switch fluorescence ratio does the source give for TGGAAGGGGG here?
The switch fluorescence ratio was 1.01 ± 0.051.

For TGGAAGGGGT, which switch fluorescence ratio is on record?
The switch fluorescence ratio was 1.09 ± 0.14.

With TGGAAGTGGG as the sequence, how does the switch fluorescence ratio read?
The switch fluorescence ratio was 1.03 ± 0.042.

For TGGAATAGGT, which switch fluorescence ratio is on record?
Its switch fluorescence ratio is 0.999 ± 0.031.

Which switch fluorescence ratio does the source give for TGGAATGCGG here?
The switch fluorescence ratio was 0.99792 ± 0.00061.

TGGAATGGGT was tested. Which switch fluorescence ratio did it give?
The switch fluorescence ratio was 0.987 ± 0.032.

With TGGACCGGGC as the sequence, how does the switch fluorescence ratio read?
Its switch fluorescence ratio is 1 ± 0.025.

For TGGACCTGAA, which switch fluorescence ratio is on record?
Its switch fluorescence ratio is 1.1 ± 0.038.

TGGACGGCGC was tested. Which switch fluorescence ratio did it give?
Its switch fluorescence ratio is 1.04 ± 0.016.

Which switch fluorescence ratio does the source give for TGGACTCGGA here?
Its switch fluorescence ratio is 1.03 ± 0.071.

How did the switch fluorescence ratio turn out when TGGACTTGGG was run?
Its switch fluorescence ratio is 0.983 ± 0.023.

With TGGAGAATTT as the sequence, how does the switch fluorescence ratio read?
The switch fluorescence ratio was 1.02 ± 0.044.

TGGAGCCTGG was tested. Which switch fluorescence ratio did it give?
The switch fluorescence ratio was 0.984 ± 0.021.

With TGGAGCGAGG as the sequence, how does the switch fluorescence ratio read?
The switch fluorescence ratio was 1.02 ± 0.00015.

Which switch fluorescence ratio does the source give for TGGAGGACTA here?
The switch fluorescence ratio was 1.14 ± 0.13.

TGGAGGAGGA was tested. Which switch fluorescence ratio did it give?
The switch fluorescence ratio was 0.982 ± 0.025.

How did the switch fluorescence ratio turn out when TGGAGGGCTA was run?
Its switch fluorescence ratio is 0.97 ± 0.032.

How did the switch fluorescence ratio turn out when TGGAGGGTGG was run?
The switch fluorescence ratio was 1.01 ± 0.019.

With TGGAGGTGTG as the sequence, how does the switch fluorescence ratio read?
The switch fluorescence ratio was 0.977 ± 0.01.

Which switch fluorescence ratio does the source give for TGGAGTAGGA here?
The switch fluorescence ratio was 1.04 ± 0.051.

With TGGAGTGTTC as the sequence, how does the switch fluorescence ratio read?
The switch fluorescence ratio was 1.06 ± 0.011.

How did the switch fluorescence ratio turn out when TGGAGTGTTT was run?
The switch fluorescence ratio was 0.94 ± 0.021.

How did the switch fluorescence ratio turn out when TGGATAGGGG was run?
Its switch fluorescence ratio is 1.03 ± 0.012.

For TGGATATAGA, which switch fluorescence ratio is on record?
The switch fluorescence ratio was 1.01 ± 0.017.

For TGGATCAGAG, which switch fluorescence ratio is on record?
The switch fluorescence ratio was 0.9984 ± 0.0013.

For TGGATCATTT, which switch fluorescence ratio is on record?
Its switch fluorescence ratio is 0.999 ± 0.022.

For TGGATGACGC, which switch fluorescence ratio is on record?
The switch fluorescence ratio was 0.96 ± 0.12.

How did the switch fluorescence ratio turn out when TGGATGACGG was run?
The switch fluorescence ratio was 0.972 ± 0.13.

How did the switch fluorescence ratio turn out when TGGATGGGGT was run?
The switch fluorescence ratio was 0.973 ± 0.027.

For TGGATGTTAT, which switch fluorescence ratio is on record?
Its switch fluorescence ratio is 1.02 ± 0.092.

How did the switch fluorescence ratio turn out when TGGATTATGA was run?
Its switch fluorescence ratio is 0.955 ± 0.011.

With TGGATTCATG as the sequence, how does the switch fluorescence ratio read?
The switch fluorescence ratio was 0.978 ± 0.06.

For TGGATTCCTA, which switch fluorescence ratio is on record?
The switch fluorescence ratio was 1.002 ± 0.01.

Which switch fluorescence ratio does the source give for TGGATTCTCT here?
The switch fluorescence ratio was 0.997 ± 0.017.

For TGGATTGACT, which switch fluorescence ratio is on record?
The switch fluorescence ratio was 1.058 ± 0.0013.

How did the switch fluorescence ratio turn out when TGGATTTAGA was run?
Its switch fluorescence ratio is 1.02 ± 0.017.

TGGATTTCGG was tested. Which switch fluorescence ratio did it give?
Its switch fluorescence ratio is 1.016 ± 0.0065.

How did the switch fluorescence ratio turn out when TGGATTTGCA was run?
Its switch fluorescence ratio is 1.03 ± 0.022.

With TGGATTTGGG as the sequence, how does the switch fluorescence ratio read?
The switch fluorescence ratio was 0.9969 ± 0.0066.

With TGGATTTGTC as the sequence, how does the switch fluorescence ratio read?
Its switch fluorescence ratio is 0.99 ± 0.024.

TGGATTTTCA was tested. Which switch fluorescence ratio did it give?
Its switch fluorescence ratio is 0.989 ± 0.03.

With TGGCAAAATG as the sequence, how does the switch fluorescence ratio read?
Its switch fluorescence ratio is 0.9915 ± 0.0088.

With TGGCAATTTG as the sequence, how does the switch fluorescence ratio read?
Its switch fluorescence ratio is 1 ± 0.033.

How did the switch fluorescence ratio turn out when TGGCACCATT was run?
Its switch fluorescence ratio is 1.06 ± 0.047.

Which switch fluorescence ratio does the source give for TGGCAGACGG here?
The switch fluorescence ratio was 1.01 ± 0.038.

TGGCAGAGGG was tested. Which switch fluorescence ratio did it give?
Its switch fluorescence ratio is 1 ± 0.044.

TGGCAGGGGG was tested. Which switch fluorescence ratio did it give?
Its switch fluorescence ratio is 0.945 ± 0.029.

For TGGCAGGGTC, which switch fluorescence ratio is on record?
The switch fluorescence ratio was 0.9774 ± 0.0077.

How did the switch fluorescence ratio turn out when TGGCATTCGT was run?
The switch fluorescence ratio was 0.9757 ± 0.0091.

For TGGCCACTTA, which switch fluorescence ratio is on record?
The switch fluorescence ratio was 1.073 ± 0.0058.

For TGGCCAGCTC, which switch fluorescence ratio is on record?
The switch fluorescence ratio was 0.975 ± 0.016.

With TGGCCATAGG as the sequence, how does the switch fluorescence ratio read?
The switch fluorescence ratio was 0.999 ± 0.041.

For TGGCCCGGGC, which switch fluorescence ratio is on record?
Its switch fluorescence ratio is 1.02 ± 0.017.

Which switch fluorescence ratio does the source give for TGGCCGCGGA here?
The switch fluorescence ratio was 1.01 ± 0.03.

For TGGCCGTATT, which switch fluorescence ratio is on record?
The switch fluorescence ratio was 1 ± 0.056.

For TGGCCTCATC, which switch fluorescence ratio is on record?
The switch fluorescence ratio was 1.02 ± 0.058.

TGGCCTGCTG was tested. Which switch fluorescence ratio did it give?
The switch fluorescence ratio was 0.9919 ± 0.0026.

For TGGCCTGGGA, which switch fluorescence ratio is on record?
The switch fluorescence ratio was 1.026 ± 0.0056.

TGGCGATTTT was tested. Which switch fluorescence ratio did it give?
Its switch fluorescence ratio is 0.978 ± 0.048.

TGGCGCATTC was tested. Which switch fluorescence ratio did it give?
The switch fluorescence ratio was 1.3 ± 0.15.

How did the switch fluorescence ratio turn out when TGGCGCCACT was run?
The switch fluorescence ratio was 0.976 ± 0.013.

How did the switch fluorescence ratio turn out when TGGCGCCGAT was run?
The switch fluorescence ratio was 0.9608 ± 0.0026.

Which switch fluorescence ratio does the source give for TGGCGCCGGG here?
Its switch fluorescence ratio is 0.9958 ± 0.0091.

How did the switch fluorescence ratio turn out when TGGCGCTTGT was run?
Its switch fluorescence ratio is 0.978 ± 0.028.

For TGGCGGAAGG, which switch fluorescence ratio is on record?
Its switch fluorescence ratio is 0.999 ± 0.044.

For TGGCGGACGT, which switch fluorescence ratio is on record?
Its switch fluorescence ratio is 1 ± 0.0081.

Which switch fluorescence ratio does the source give for TGGCGGAGTC here?
Its switch fluorescence ratio is 1 ± 0.022.

How did the switch fluorescence ratio turn out when TGGCGGCCAC was run?
Its switch fluorescence ratio is 1.04 ± 0.15.

With TGGCGGGGTT as the sequence, how does the switch fluorescence ratio read?
Its switch fluorescence ratio is 0.986 ± 0.022.

With TGGCGGTACG as the sequence, how does the switch fluorescence ratio read?
Its switch fluorescence ratio is 1.02 ± 0.069.

With TGGCGGTTGC as the sequence, how does the switch fluorescence ratio read?
Its switch fluorescence ratio is 0.955 ± 0.013.

For TGGCGTTGAT, which switch fluorescence ratio is on record?
The switch fluorescence ratio was 0.984 ± 0.019.

TGGCGTTTGG was tested. Which switch fluorescence ratio did it give?
The switch fluorescence ratio was 1 ± 0.015.

How did the switch fluorescence ratio turn out when TGGCGTTTTT was run?
Its switch fluorescence ratio is 1.01 ± 0.023.

Which switch fluorescence ratio does the source give for TGGCTGGAAG here?
Its switch fluorescence ratio is 0.988 ± 0.027.

TGGCTGGGTT was tested. Which switch fluorescence ratio did it give?
Its switch fluorescence ratio is 1 ± 0.054.

TGGCTTACAT was tested. Which switch fluorescence ratio did it give?
Its switch fluorescence ratio is 1.0268 ± 0.00039.

For TGGCTTAGGA, which switch fluorescence ratio is on record?
The switch fluorescence ratio was 0.979 ± 0.012.

With TGGCTTATTT as the sequence, how does the switch fluorescence ratio read?
Its switch fluorescence ratio is 0.988 ± 0.031.

Which switch fluorescence ratio does the source give for TGGCTTTGCT here?
The switch fluorescence ratio was 0.962 ± 0.015.

Which switch fluorescence ratio does the source give for TGGCTTTGGA here?
The switch fluorescence ratio was 0.988 ± 0.022.

With TGGCTTTGTT as the sequence, how does the switch fluorescence ratio read?
The switch fluorescence ratio was 0.9888 ± 0.0041.

For TGGCTTTTAT, which switch fluorescence ratio is on record?
Its switch fluorescence ratio is 0.95149 ± 0.00041.

Which switch fluorescence ratio does the source give for TGGCTTTTTG here?
Its switch fluorescence ratio is 0.9898 ± 0.0035.

Which switch fluorescence ratio does the source give for TGGCTTTTTT here?
Its switch fluorescence ratio is 0.998 ± 0.027.

With TGGGAAAAAC as the sequence, how does the switch fluorescence ratio read?
Its switch fluorescence ratio is 1.09 ± 0.1.

With TGGGAAAACT as the sequence, how does the switch fluorescence ratio read?
The switch fluorescence ratio was 1.07 ± 0.12.

For TGGGAAAATT, which switch fluorescence ratio is on record?
Its switch fluorescence ratio is 1 ± 0.033.
